In the supplement of paper PMC9732359:
± gives the uncertainty stated by the source.

Test: protein stability index of a GFP-peptide fusion (yeast GPS) (PSI 1-4); higher = more stable; sorted into four equal gates, so the index is relative within each strain
Outline: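 Sequencing reads from sorted gates were used to score each peptide. The library consisted of tiled 17-residue yeast protein peptides fused downstream of GFP on a Cherry-expressing plasmid, pooled and carried in yeast. Mid-log cultures in leucine-free medium were split into four equal gates by GFP/Cherry ratio, and each gate's plasmids were PCR-amplified and Illumina-sequenced. The protein stability index adds up, over all gates, the read frequency multiplied by the gate number.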

Sequence	protein stability index (doa10∆)	protein stability index (pdr5∆)	protein stability index (san1∆)	protein stability index (ubr1∆)
NQSNLNGGNNTQQPGTN [SNF2]	2.76 ± 0.073	3.1 ± 0.075	3.08 ± 0.062	3.04 ± 0.056
ALIENWAADSVSSRVRG [FAS1]	3.45 ± 0.12	3.1 ± 0.14	2.84 ± 0.082	3.34 ± 0.075
ITRLCQTLGLESFTEEL [MED1]	2.54 ± 0.054	2.81 ± 0.063	1.59 ± 0.16	2.51 ± 0.056
AIPSRMTVAHLIECLLS [RPB2]	1.39 ± 0.098	1.85 ± 0.094	1.39 ± 0.25	1.67 ± 0.09
NSAIIQNLRKELLIYKK [YIL149C/MLP2]	3.14 ± 0.084	2.6 ± 0.11	3.23 ± 0.078	3.14 ± 0.053
SLTYKKISLRDICLKLN [RPN3]	2.38 ± 0.05	2.17 ± 0.047	1.44 ± 0.13	2.05 ± 0.04
MAVGKNKRLSRGKKGLK [RPS1B]	1.49 ± 0.13	1.62 ± 0.083	1.64 ± 0.14	1.46 ± 0.12
LQELIVNGPNVHPGANY [RPO31]	2.83 ± 0.071	2.99 ± 0.092	2.99 ± 0.072	2.45 ± 0.047
PVSLLNSQLVGKPHFSL [PCI8]	2.1 ± 0.084	2.37 ± 0.074	1.88 ± 0.21	2.21 ± 0.052
EYQIVYYNPQAGTKITI [RGR1]	2.15 ± 0.13	2.1 ± 0.22	2.12 ± 0.13	2.45 ± 0.1
VLLATWNLEKWREIIEK [IRR1]	–	3.14 ± 0.16	2.92 ± 0.1	–
SLNLTDDVISNAGTNDN [MCD1]	2.88 ± 0.047	2.97 ± 0.057	3.11 ± 0.036	2.96 ± 0.041
AIDYEPEYEKAMQYVCG [SMC1]	–	–	2.8 ± 0.13	2.44 ± 0.11
AIRRDARYNWICNPVHK [RPL15B]	3.03 ± 0.16	3.38 ± 0.13	3.37 ± 0.13	3.21 ± 0.081
DRHIGCAMSGLTADARS [PUP2]	2.67 ± 0.096	3.08 ± 0.12	–	2.69 ± 0.07
MNNGSGRYLLTPPDDLH [SRB8]	2.41 ± 0.06	2 ± 0.044	2.29 ± 0.13	2.63 ± 0.054
NGDLTVSLCAKNMGLVP [SSN2]	2.22 ± 0.081	2.23 ± 0.079	2.13 ± 0.091	2.17 ± 0.087
TVQENELLKSSLQKAGS [AAR2]	3.17 ± 0.11	3.21 ± 0.088	3.01 ± 0.073	3.13 ± 0.084
VTKDLKLRREDEIIVYA [REC8]	2.8 ± 0.069	2.73 ± 0.05	3.18 ± 0.056	2.96 ± 0.044
ENAYKSENAPSASSKEF [YAR002W/NUP60]	2.18 ± 0.066	1.86 ± 0.062	2.15 ± 0.078	2.15 ± 0.074
GANTSAAQTLLQMDYKD [PRE9]	3 ± 0.061	3.13 ± 0.058	3.09 ± 0.048	2.96 ± 0.051
YQVDEDVKSSLSKVFSD [YJL039C/NUP192]	3.23 ± 0.17	3.42 ± 0.14	3.33 ± 0.17	2.93 ± 0.22
EKLLKELENNEFTENEL [ITC1]	3.43 ± 0.074	3.21 ± 0.078	3.33 ± 0.069	3.33 ± 0.097
GAIKPFTPKLIYDFITL [ECM29]	1.73 ± 0.081	1.84 ± 0.098	1.87 ± 0.3	1.36 ± 0.062
GFSPTSPTYSPTSPAYS [RPO21]	2.81 ± 0.052	2.74 ± 0.043	2.94 ± 0.051	2.39 ± 0.038
KPMAFSNTTTHVPEKKS [MTR3]	1.46 ± 0.053	2.04 ± 0.052	2.32 ± 0.082	1.62 ± 0.034
FNITDNGVRALFHSCTR [GRR1]	1.53 ± 0.11	2.52 ± 0.088	1.09 ± 0.15	2.35 ± 0.054

Sequence	protein stability index (doa10∆)	protein stability index (pdr5∆)	protein stability index (san1∆)	protein stability index (ubr1∆)
QQQQQQQQQQQNNSTGS [SSN2]	2.58 ± 0.06	2.78 ± 0.049	2.52 ± 0.11	2.85 ± 0.065
TSADLKSKAEELTQVPS [UBP6]	3.16 ± 0.21	3.22 ± 0.12	2.79 ± 0.13	3.12 ± 0.18
SGVPRLKEILNVAKNMK [RPO21]	1.23 ± 0.12	1.83 ± 0.12	1.32 ± 0.26	1.4 ± 0.082
TITTILILGLNTSIAQF [YML103C/NUP188]	1.83 ± 0.039	1.67 ± 0.045	2.32 ± 0.076	2.28 ± 0.04
RTLLTEEIEPKLEKLRN [SMC2]	3.02 ± 0.074	3 ± 0.068	3.18 ± 0.042	3.21 ± 0.054
DELITEGNEKLAAVPAA [RPP2A]	2.71 ± 0.09	2.92 ± 0.099	2.74 ± 0.083	2.78 ± 0.09
DQKTGRAKSSSHLFNEY [RPN4]	2.85 ± 0.25	3.22 ± 0.24	3.39 ± 0.12	3.46 ± 0.15
ITRSVMRFNIEIIADWI [BRR2]	3.04 ± 0.071	2.7 ± 0.078	2.57 ± 0.097	3.16 ± 0.065
GSNNGFGNKPAGSTGFS [YGR119C/NUP57]	1.65 ± 0.076	1.24 ± 0.083	1.27 ± 0.15	2.22 ± 0.16
KIRARSITLQGDVYDPE [SMC2]	2.07 ± 0.065	2.19 ± 0.059	1.79 ± 0.16	1.86 ± 0.067
LFQTIEKLINNSDDCMM [ECM29]	3.1 ± 0.083	2.92 ± 0.072	3.09 ± 0.063	3.03 ± 0.09
AQGDPNLEPLIAKLVAV [NUT1]	–	1.87 ± 0.13	3.08 ± 0.19	1.07 ± 0.088
KLTRELEKKFQDRHVIF [RPS7A]	3.08 ± 0.14	3.5 ± 0.18	3.09 ± 0.086	3.18 ± 0.1
NNNPLQQQSSQNTVPNV [GAL11]	2.65 ± 0.046	2.86 ± 0.041	3 ± 0.033	2.82 ± 0.03
KKKRSRTSATREDTPLS [ISW2]	3.51 ± 0.16	3.37 ± 0.083	3.45 ± 0.058	3.22 ± 0.13
VAATNTPIIFIGTGEHI [SRP54]	2.17 ± 0.1	3.03 ± 0.12	2.26 ± 0.083	2.6 ± 0.071
HDFIKGLIMLNLQPASV [NUT1]	1.83 ± 0.059	1.24 ± 0.071	1.22 ± 0.14	1.24 ± 0.065
KGSRQCRVCSSHTGLIR [RPS29A]	2.73 ± 0.06	2.93 ± 0.049	2.62 ± 0.055	2.9 ± 0.043
LRIVKPTVSLTINLDRF [RPC82]	2.29 ± 0.068	2.29 ± 0.054	2.46 ± 0.063	2.43 ± 0.11
TGVSVEAVDDVFQAKMM [RPN11]	2.8 ± 0.14	3.06 ± 0.12	2.92 ± 0.082	2.87 ± 0.13
IETVDDKLKDIVGQTSR [ITC1]	3.25 ± 0.07	3.01 ± 0.075	3.17 ± 0.086	3.03 ± 0.14
PSADGADKKDDSESNSE [ITC1]	2.83 ± 0.083	3.11 ± 0.065	3.34 ± 0.068	2.96 ± 0.068
IIHFHSHPEKRMIPPRM [SSN3]	3.09 ± 0.07	2.95 ± 0.067	3.06 ± 0.065	3.13 ± 0.049
TQKRLAASVVGVGKRKV [RPL19A]	1.33 ± 0.1	1.32 ± 0.16	1.13 ± 0.11	1.79 ± 0.11
PIAAPKKPRKPRQTKKA [PGD1]	2.64 ± 0.11	3.18 ± 0.092	2.56 ± 0.082	3.09 ± 0.097
LKIYKVGDIVDIKANGS [RPL21B]	2.18 ± 0.058	1.88 ± 0.05	1.83 ± 0.062	2.08 ± 0.03
NTAPGLGNTVSTQPSFA [YGR119C/NUP57]	3.04 ± 0.11	2.96 ± 0.079	2.9 ± 0.098	3.04 ± 0.056

Sequence	protein stability index (doa10∆)	protein stability index (pdr5∆)	protein stability index (san1∆)	protein stability index (ubr1∆)
MKPKAEKESDDGLLEYL [SMC4]	3.58 ± 0.17	3.37 ± 0.16	3.31 ± 0.18	–
LKEPVEDIIKRTSPIDN [NUT2]	2.97 ± 0.083	3.09 ± 0.1	2.64 ± 0.1	3.2 ± 0.061
FQNTNTRSALKLVRESE [QCR2]	2.7 ± 0.078	2.94 ± 0.074	2.81 ± 0.088	2.64 ± 0.07
SSEGFYSKIKHLGLDDP [SIR2]	1.83 ± 0.2	2.72 ± 0.14	1.96 ± 0.17	1.2 ± 0.14
LSRPSLPKIKTVRKSIA [RPL35A]	1.54 ± 0.06	1.94 ± 0.073	2.31 ± 0.059	1.85 ± 0.054
GEKTLSSLALVFALHKY [SMC4]	2.57 ± 0.054	2.48 ± 0.066	1.9 ± 0.12	2.98 ± 0.051
SMDVDDKNSGVKSEVDV [ITC1]	2.52 ± 0.076	1.64 ± 0.039	1.78 ± 0.094	2.5 ± 0.043
WLYVYETPNQDATYDSA [RPN6]	2.62 ± 0.075	2.75 ± 0.067	2.67 ± 0.068	2.49 ± 0.055
AAAQAQSKIDLTKKKNE [SEM1]	2.9 ± 0.079	2.83 ± 0.096	2.94 ± 0.082	2.87 ± 0.083
TSTDGKKRSKARKETYS [HTB1]	3.07 ± 0.24	3.11 ± 0.14	–	–
LEFRWLTSSKSVIVSQF [SIN4]	1.73 ± 0.056	1.56 ± 0.059	1.6 ± 0.087	1.42 ± 0.061
NLCGDISLEALNFYITN [SIR3]	2.55 ± 0.064	2.73 ± 0.059	2.6 ± 0.053	2.74 ± 0.032
PRFNRDNKVSPAAAAKK [RPS26B]	2.41 ± 0.12	2.5 ± 0.21	2.61 ± 0.11	2.76 ± 0.12
NKEMHTDLGKDIPFFPS [SSN2]	2.34 ± 0.062	2.01 ± 0.066	2.52 ± 0.066	2.76 ± 0.055
DVRRLKKNVWRSINNLI [BRN1]	2.62 ± 0.29	1.9 ± 0.11	1.06 ± 0.15	1.1 ± 0.063
MKLDDSSKTRNVLNRIQ [ITC1]	1.78 ± 0.082	1.3 ± 0.051	2.71 ± 0.12	1.38 ± 0.056
CIQVNCLNCEKSKLFEW [SNM1]	3.11 ± 0.065	3.29 ± 0.058	3.13 ± 0.05	3.16 ± 0.052
VLNQQLPIESQFVSKLV [BRR2]	1.74 ± 0.066	1.98 ± 0.048	1.96 ± 0.1	2.01 ± 0.043
TGGQTIDNGTGRTGNGN [MED6]	3.06 ± 0.13	2.82 ± 0.066	3.26 ± 0.079	2.72 ± 0.063
PSGRTRGRSVMKESVVE [ESC2]	–	–	2.99 ± 0.19	3.67 ± 0.22
IPHFIDNNSSLNVSNTK [PRP8]	2.36 ± 0.08	2.42 ± 0.069	2.66 ± 0.053	2.51 ± 0.06
KAKSVVNDVEELGEIID [RMP1]	3.4 ± 0.14	–	2.8 ± 0.26	–
WNLNATKPNVLNDPSLK [SIN4]	3 ± 0.088	2.94 ± 0.071	3 ± 0.054	3.26 ± 0.04
SILRKSSPEEPFMSYSP [SNF12]	2.64 ± 0.074	2.74 ± 0.075	2.55 ± 0.088	2.79 ± 0.059
YSVLLESPLSVAIQQGD [YML103C/NUP188]	1.23 ± 0.091	1.16 ± 0.063	1.2 ± 0.17	1.19 ± 0.077
